Changes are numbered by the printed parent chain. Names may count otherwise.
B1: 413H9F8-VL-S32L (antibody, human IgG1, kappa, V domains shown)
VH: DVQLVESGGGSVQPGGSRRLSCAASGFTFSSFGMHWVRQAPEKGLEWVAYISSGSSPIYYVDKLKGRFTVSRDNPKNTLFLQMTSLRSEDTAMYYCARAGYAVRNALDYWGQGTSITVSS
VL: DIVMTQSPSSLSVSVGEKVTLSCKSSQSLLNLGNQKNYLAWYQQKTGQPPKLLIYGASTRESGVPDRFIGSGSGTDFTLTISSVQAEDLAVYFCQNDLFYPLTFGAGTKLELKR
B2: 364D1A7-VL-S32L (antibody, human IgG1, kappa, V domains shown)
VH: DVQLVESGGGLVQPGGSRKLSCAASGFTFSSFGMHWVRQAPEKGLEWVAYISSGSGSIYYADTVKGRFTLSRDNPKNTLFLQMTSLRSEDTAIYYCATSYYYGNALEYWGQGTSVTVSS
VL: DVVLTQSPSSLTVTEGEKVSMSCKSSQSLFNLGNQKNYLTWYQQKPGQTPTLLIYWASTRKSGVPDRFTGSGSGTDFTLTINTVQAEDLAVYYCQNVYSYPLTFGAGTKLDLKR
B3: hz282-19 (antibody, V domains shown)
VH: QVQLQESGPGLVKPSETLSLTCTVSGFSLTSYNVYWIRQPPGKGLEWIGVIWNTGATRYNSALKSRVTISKDTSKSQVSLKLSSVTAADTAVYYCARDSAMPAIPFAYWGQGTLVTVSS
VL: DIVMTQSPSSLSASVGDRVTINCKSSQSLFGSVRQKNYLAWYQQKPGKSPKLLIYLASTRESGVPDRFSGSGSGTDFTLTISSLQPEDFAKYYCQQYYDIPWTFGGGTKVEIK
notes: humanized IgG; constant regions not specified
B4: hz282-15 (antibody, V domains shown)
VH: B3 VH
VL: B3 VL with V3Q, N22T
notes: as for B3
B5: hz282-12 (antibody, V domains shown)
VH: B3 VH with S25A
VL: B3 VL with V3Q, N22T, S49A, D66S, K91T
notes: as for B3
B6: hz282-20 (antibody, V domains shown)
VH: B3 VH with S25A
VL: B3 VL
notes: as for B3
B7: hz282-4 (antibody, V domains shown)
VH: B3 VH with S25A
VL: DIVMTQSPDSLAVSLGERATINCKSSQSLFGSVRQKNYLAWYQQKPGQPPKLLIYLASTRESGVPDRFSGSGSGTDFTLTISSLQAEDVAVYYCQQYYDIPWTFGGGTKVEIK
notes: as for B3
B8: hz282-8 (antibody, V domains shown)
VH: B3 VH with S25A
VL: B7 VL with P49S, V91K
notes: as for B3
B9: hz282-11 (antibody, V domains shown)
VH: B3 VH
VL: B3 VL with V3Q, N22T, S49A, D66S, K91T
notes: humanized IgG; constant regions not specified; also called humanized 282A12(T62A) (hz282-11)
B10: hz282-3 (antibody, V domains shown)
VH: B3 VH
VL: B7 VL
notes: as for B3
B11: hz282-10 (antibody, V domains shown)
VH: B3 VH with S76N
VL: B3 VL with V3Q, N22T, S49A, D66S, K91T
notes: as for B3
B12: 413H9F8-cp1 (antibody, V domains shown)
VH: EVQLVESGGGLVQPGGSLRLSCAASGFTFSSFGMHWVRQAPGKGLEWVSYISSGSSPIYYVDKLKGRFTISRDNAKNSLYLQMNSLRAEDTAVYYCARAGYAVRNALDYWGQGTLVTVSS
VL: EIVMTQSPPTLSLSPGERVTLSCKSSQSLLNVGNQKNYLAWYQQKPGQAPRLLIYGASTRESGIPARFSGSGSGTDFTLTISSLQPEDFAVYYCQNDLFYPLTFGGGTKVEIK
notes: as for B3
B13: 364D1A7-H1L1 (antibody, V domains shown)
VH: EVQLVESGGGLVQPGGSLRLSCAASGFTFSSFGMHWVRQAPGKGLEWVSYISSGSGSIYYADTVKGRFTISRDNAKNSLYLQMNSLRAEDTAVYYCATSYYYGNALEYWGQGTTVTVSS
VL: DIVMTQSPDSLAVSLGERATINCKSSQSLFNVGNQKNYLTWYQQKPGQPPKLLIYWASTRKSGVPDRFSGSGSGTDFTLTISSLQAEDVAVYYCQNVYSYPLTFGGGTKVEIK
notes: as for B3
B14: 364D1A7-H3L1 (antibody, V domains shown)
VH: B13 VH with S49A, I70L, A75P
VL: B13 VL
notes: as for B3
B15: 413H9F8-H1L1 (antibody, V domains shown)
VH: B12 VH
VL: B13 VL with F30L, T40A, W56G, K61E, V97D, Y98L, S99F
notes: as for B3
B16: 413H9F8-H1L3 (antibody, V domains shown)
VH: B12 VH
VL: B13 VL with F30L, T40A, W56G, K61E, S69I, Y93F, V97D, Y98L, S99F
notes: as for B3
B17: 413H9F8-H2L1 (antibody, V domains shown)
VH: B12 VH with S49A
VL: B13 VL with F30L, T40A, W56G, K61E, V97D, Y98L, S99F
notes: as for B3
B18: 413H9F8-VL-S32V-V2-DL (antibody, V domains shown)
VH: B1 VH
VL: DIVMTQSPSSLSVSVGEKVTLSCKSSQSLLNVGNQKNYLAWYQQKTGQPPKLLIYGASTRESGVPDRFIGSGSGTDFTLTISSVQAEDLAVYFCQNDLFYPLTFGAGTKLELK
B19: Xi282A12F3(T62A)-V2-DL (antibody, V domains shown)
VH: QVQLKESGPVLVQPSQTLSLTCTVAGFSLTSYNVYWVRQPPGKGLEWMGVIWNTGATRYNSALKSRLSISKDTSKSQVFLKMNSLQTEDTATYYCARDSAMPAIPFAYWGQGTLVTVSS
VL: DIVMTQSPSSLAVSAGETVTINCKSSQSLFGSVRQKNYLAWYQQKPGQSPKLLIYLASTRESGVPDRFIGSGSGTDFTLTISSVQAEDLAKYYCQQYYDIPWTFGGGTKLELK
B20: hz282-15-V2 (antibody, V domains shown)
VH: B3 VH
VL: B3 VL with V3Q, N22T
B21: hz282-11-V2 (antibody, V domains shown)
VH: B3 VH
VL: B3 VL with V3Q, N22T, S49A, D66S, K91T

biological target: T1, human Claudin 18.2 (CLDN18.2) (human, UniProt P56856-2 1-261); assay: cell-based or functional assay

| Binder | ADCC EC50, NCI-N87-18.2 cells, FcR-TANK effectors [nM] |
| --- | --- |
| B1 | 8.56 |
| B2 | 9.56 |

biological target: T2, CLDN18.2 endogenously expressed on SNU620 gastric cancer cells (UniProt P56856-2 1-261, limits assumed); assay: FACS Exp. 3, SNU620 cells
T2 construct: whole, on cells; also called SU620

| Binder | MFI_SNU620 (@30 ug/ml) [MFI] |
| --- | --- |
| B3 | 1310 |
| B4 | 1230 |
| B5 | 1220 |
| B6 | 1240 |
| B7 | 1080 |
| B8 | 1190 |
| B9 | 1340 |
| B10 | 1150 |
| B11 | 1310 |

biological target: T1, human Claudin 18.2 (CLDN18.2); assay: FACS on CHO-CLDN18.2 cells

| Binder | EC50 [nM] |
| --- | --- |
| B9 | 3.68 |
| B12 | 2.6 |

biological target: T1, human Claudin 18.2 (CLDN18.2); assay: FACS on CHO-CLDN18.2 cells; remark: another data set of the same source

| Binder | EC50 [nM] |
| --- | --- |
| B9 | 2.75 |
| B13 | 3.5 |
| B14 | 4.22 |

biological target: T1, human Claudin 18.2 (CLDN18.2); assay: FACS Exp. 1, MFI ratio CHO-18.2 over CHO-18.1

| Binder | MFI_CHO-18.2/CHO-18.1 (@30 ug/ml) |
| --- | --- |
| B3 | 812 |
| B4 | 1380 |
| B5 | 1230 |
| B6 | 981 |
| B7 | 1240 |
| B8 | 960 |
| B9 | 1190 |
| B10 | 1100 |
| B11 | 808 |

biological target: T1, human Claudin 18.2 (CLDN18.2); assay: cell-based or functional assay; remark: another data set of the same source

| Binder | % ADCC @ 6.67 nM, NCI-N87-CLDN18.2, FcR-TANK [%] | ADCC EC50, NCI-N87-CLDN18.2, FcR-TANK [nM] |
| --- | --- | --- |
| B12 | 13.3 | 0.44 |
| B13 | 13.5 | 0.4 |
| B15 | 15.1 | 0.47 |
| B16 | 16.3 | 0.37 |
| B17 | 14.1 | 0.31 |
| B14 | 10.8 | 0.41 |

biological target: T1, human Claudin 18.2 (CLDN18.2); assay: cell-based or functional assay; remark: another data set of the same source

| Binder | CDC EC50, human serum, CHO-CLDN18.2 [nM] |
| --- | --- |
| B12 | 1.66 |
| B13 | 1.48 |
| B15 | 0.78 |
| B16 | 1.07 |
| B17 | 1.06 |
| B14 | 1.28 |

biological target: T1, human Claudin 18.2 (CLDN18.2); assay: FACS on CHO-CLDN18.2 cells; remark: another data set of the same source

| Binder | EC50 [nM] |
| --- | --- |
| B9 | 3.17 |
| B15 | 2.31 |
| B16 | 2.38 |
| B17 | 2.43 |

biological target: T1, human Claudin 18.2 (CLDN18.2); assay: cell-based or functional assay; remark: another data set of the same source

| Binder | % specific cytotoxicity @ 6.67 nM, NUGC4-CLDN18.2, PBMC [%] | ADCC EC50, NUGC4-CLDN18.2, PBMC [nM] |
| --- | --- | --- |
| B12 | 31.5 | 7.18 |
| B13 | 26.7 | 13.3 |
| B15 | 27 | 8.98 |
| B16 | 34.6 | 4.38 |
| B17 | 34.3 | 5.97 |
| B14 | 26.2 | 11.3 |

biological target: T1, human Claudin 18.2 (CLDN18.2); assay: cell-based or functional assay; remark: another data set of the same source

| Binder | % internalization, NCI-N87-CLDN18.2, 37 C 2 h [%] | % internalization, NUGC4-CLDN18.2, 37 C 2 h [%] |
| --- | --- | --- |
| B18 | < 30 | < 15 |
| B19 | > 50 | > 80 |
| B20 | > 50 | > 80 |
| B21 | > 50 | > 80 |

biological target: T1, human Claudin 18.2 (CLDN18.2); assay: FACS Exp. 2, MFI ratio CHO-18.2 over CHO-18.1

| Binder | MFI_CHO-18.2/CHO-18.1 (@30 ug/ml) |
| --- | --- |
| B3 | 1010 |
| B4 | 2020 |
| B5 | 1940 |
| B6 | 987 |
| B7 | 2540 |
| B8 | 1610 |
| B9 | 2000 |
| B10 | 1670 |
| B11 | 1500 |
